First the molecules themselves.
T1: wildtype OX2R (Homo sapiens, UniProt O43614)
T1 sequence (O43614 1-444): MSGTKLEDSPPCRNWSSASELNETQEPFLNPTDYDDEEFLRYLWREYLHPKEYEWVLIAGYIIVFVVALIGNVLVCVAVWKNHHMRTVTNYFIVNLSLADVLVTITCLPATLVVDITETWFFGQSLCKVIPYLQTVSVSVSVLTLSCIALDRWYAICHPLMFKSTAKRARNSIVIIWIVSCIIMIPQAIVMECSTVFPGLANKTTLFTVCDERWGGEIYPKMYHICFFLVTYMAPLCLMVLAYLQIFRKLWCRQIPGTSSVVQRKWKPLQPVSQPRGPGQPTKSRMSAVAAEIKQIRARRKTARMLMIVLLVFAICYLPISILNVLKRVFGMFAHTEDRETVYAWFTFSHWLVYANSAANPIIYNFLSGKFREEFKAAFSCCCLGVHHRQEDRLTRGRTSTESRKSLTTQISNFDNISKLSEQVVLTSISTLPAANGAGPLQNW

T2: Engineered human orexin receptor 2 (OX2R) truncated after R389, ICL3 residues V261-A291 deleted, with an … (human, UniProt O43614 1-389, residues V261–A291 deleted, biotin on the Avi-tag (BirA biotin-protein ligase))
T2 construct: Orexin receptor type 2 (OX2R), human, truncated after residue R389, part of ICL3 (residues V261-A291) deleted; M1 is said to be present in the construct; Detergent-solubilised receptor (DDM/CHS); The PDB entries hold the construct without the Avi-tag; also called engineered OX2R; orexin receptor type 2; source: biotinylated with BirA; not shown: Avi-tag, N-terminal, kept
T2 sequence (looked up): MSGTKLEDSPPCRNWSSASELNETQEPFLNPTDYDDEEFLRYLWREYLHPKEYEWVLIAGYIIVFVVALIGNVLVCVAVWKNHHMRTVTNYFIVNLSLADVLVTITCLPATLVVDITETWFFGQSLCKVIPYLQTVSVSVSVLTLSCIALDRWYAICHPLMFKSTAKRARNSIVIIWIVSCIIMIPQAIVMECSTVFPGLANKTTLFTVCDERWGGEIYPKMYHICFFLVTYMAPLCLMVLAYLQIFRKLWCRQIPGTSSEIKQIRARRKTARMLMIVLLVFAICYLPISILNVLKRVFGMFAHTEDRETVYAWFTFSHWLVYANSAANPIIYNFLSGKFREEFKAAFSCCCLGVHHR

B1: Synthetic nanobody clone 45 (VHH)
VHH: QVQLVESGGGLVQAGGSLRLSCAASGFPVYTYTMYWYRQAPGKEREWVAAITSEGISTAYADSVKGRFTISRDNAKNTVYLQMNSLKPEDTAVYYCEVYVGYFYHGQGTQVTVS
notes: synthetic nanobody selected from the libraries of Zimmermann and coworkers by ribosome display and phage display; Host, tags and purification are told only for Sb51 (clone 51); also called Clone No. 45
B2: Synthetic nanobody clone 44 (VHH)
VHH: B1 VHH with Y30D, T52N, E54N, I56H, S57H, Y102W, F103W, H105Y
notes: synthetic nanobody selected from the libraries of Zimmermann and coworkers by ribosome display and phage display; Host, tags and purification are told only for Sb51 (clone 51); also called Clone No. 44
B3: Synthetic nanobody clone 46 (VHH)
VHH: B1 VHH with Y30D, T31A, T33V, T52A, E54Q, I56H, S57P, Q110R
notes: synthetic nanobody selected from the libraries of Zimmermann and coworkers by ribosome display and phage display; Host, tags and purification are told only for Sb51 (clone 51); also called Clone No. 46
B4: Synthetic nanobody clone 55 (VHH)
VHH: B1 VHH with Y30Q, T31S, Y32H, T52N, E54T, I56Q, S57G
notes: synthetic nanobody selected from the libraries of Zimmermann and coworkers by ribosome display and phage display; Host, tags and purification are told only for Sb51 (clone 51); also called Clone No. 55
B5: Synthetic nanobody clone 13 (VHH)
VHH: QVQLVESGGGLVQAGGSLRLSCAASGFPVNAREMYWYRQAPGKEREWVAAIVSKGSHTEYADSVKGRFTISRDNAKNTVYLQMNSLKPEDTAVYYCNVKDFGWWAVYYDYWGQGTQVTVS
notes: synthetic nanobody selected from the libraries of Zimmermann and coworkers by ribosome display and phage display; Host, tags and purification are told only for Sb51 (clone 51); also called Clone No. 13
B6: Synthetic nanobody clone 15 (VHH)
VHH: B5 VHH with N30K, A31Q, Y35A, V52W, S56A, E59V, A105N, V106R, Y107Q
notes: synthetic nanobody selected from the libraries of Zimmermann and coworkers by ribosome display and phage display; Host, tags and purification are told only for Sb51 (clone 51); also called Clone No. 15
B7: Synthetic nanobody clone 7 (VHH)
VHH: B5 VHH with N30L, A31R, R32Q, Y35F, V52W, H57T, F101Y, A105N, V106N, Y107W
notes: synthetic nanobody selected from the libraries of Zimmermann and coworkers by ribosome display and phage display; Host, tags and purification are told only for Sb51 (clone 51: E. coli C41(DE3), MBP fusion cleaved by TEV); also called Clone No. 7
B8: Synthetic nanobody clone 56 (VHH)
VHH: QVQLVESGGGLVQAGGSLRLSCAASGFPVVSYNMKWYRQAPGKEREWVAAIYSFGSLGSWTHYADSVKGRFTISRDNAKNTVYLQMNSLKPEDTAVYYCHVYVGATYYGQGTQVTVS
notes: synthetic nanobody selected from the libraries of Zimmermann and coworkers by ribosome display and phage display; Host, tags and purification are told only for Sb51 (clone 51); also called Clone No. 56
B9: synthetic nanobody Sb51 (VHH)
VHH: QVQLVESGGGLVQAGGSLRLSCAASGFPVGRVMYWYRQAPGKEREWVAAISSHGDMTAYADSVKGRFTISRDNAKNTVYLQMNSLKPEDTAVYYCEVYVGYFYHGQGTQVTVS
notes: in the coordinates deposited here (complex with compound 1); Supplementary Data 1 lists the hits from which Sb51 was chosen; source: E. coli C41(DE3) periplasm, MBP fusion, purified (NiNTA, TEV cleavage, NiNTA, cation exchange); not shown: His10, N-terminal, cleaved
B10: 36 (VHH)
VHH: B1 VHH with Y30N, Y32H, E54N, I56Q, Y99R
B11: 49 (VHH)
VHH: B1 VHH with T31N, Y32N, T52S, E54G, I56S, S57N
B12: 41 (VHH)
VHH: B1 VHH with Y30N, T31S, T33V, T52G, E54T, I56E, S57Y, Y99F, H105Y
B13: 42 (VHH)
VHH: B1 VHH with Y30N, Y32R, T33S, T52A, E54T, I56W, Y99E, F103W, H105Y
B14: 53 (VHH)
VHH: B1 VHH with Y30N, Y32R, T33S, T52A, E54T, I56W
B15: 47 (VHH)
VHH: B1 VHH with Y30D, T31S, Y32K, T52A, E54A, I56H, S57L, Y99H, Y102W
B16: 48 (VHH)
VHH: B1 VHH with Y30A, T31M, Y32N, E54S, I56E, S57H
B17: 38 (VHH)
VHH: B1 VHH with Y32N, E54S, I56H, S57N, Y102W
B18: 50 (VHH)
VHH: B1 VHH with Y30W, T31H, Y32D, T52G, E54T, I56N, S57L
B19: 57 (VHH)
VHH: B1 VHH with Y30S, T31Q, Y32K, T52A, I56Q, S57K
B20: 54 (VHH)
VHH: B1 VHH with Y30Q, T31H, T33V, T52D, E54S, I56A, S57H, A59V, Y102W
B21: 43 (VHH)
VHH: QVQLVESGGGLVQAGGSLRLSCAASGFPVSYIGMEWYRQAPGKEREWVAAITGFGHWTAYADSVKGRFTISRDNAKNTVYLQMNSLKPEDTAVYYCEVQVGAKYYGQGTQVTVS
B22: 40 (VHH)
VHH: B1 VHH with V2L, Y30R, T31S, R38S, T52N, E54Q, I56N, S57T, F103W
B23: 37 (VHH)
VHH: QVQLVESGGGLVQAGGSLRLSCAASGFPVWWKSMAWYRQAPGKEREWVAAISSFGWYTEYADSVKGRFTISRDNAKNTVYLQMNSLKPEDTAVYYCAVYVGSYYWGRGTQVTVS
B24: 39 (VHH)
VHH: B23 VHH with W30K, F54W, A97Y, S102H, Y103T, W105H, R107Q
B25: 52 (VHH)
VHH: B23 VHH with W30K, F54Y, Y57H, A97T, Y99N, S102K, Y103G, W105E, R107Q

Positions count from the first letter of the chain named.

The target in one assay is T1, wildtype OX2R. The assay is described as follows: Saturation binding of 125I-OxA to wildtype OX2R. Conditions: CHO cell membranes, wild-type OX2R, room temperature, 6 h, pH 7.4; mean ± s.e.m., n = 3.
For “125I-OxA: radioligand, 125I-labelled OxA (PerkinElmer) (QPLPDCCRQKTCSCRLYELLHGAGNHAAGILTL)”, the “Dissociation constant, pKD” value is given as 9.12 ± 0.05.

A further assay has as its target T2, Engineered human orexin receptor 2 …. Nature of the assay: grating-coupled interferometry; WAVE system (Creoptix); agonist-bound OX2R immobilised via the biotinylated Avi-tag on a neutravidin-coated WAVEchip 4PCP; nanobody as analyte. Conditions: both partners purified.
In general, Kd refers to the free concentration of one partner at which half of the binding sites on the other are occupied at equilibrium, for simple one-to-one binding. Low readings indicate a tighter complex, high ones a looser complex. Take B1: binding was characterised by a dissociation constant (Kd) of 11 nM.

B2 displayed a Kd of 7.7 nM. Still for that read-out and setting: as for B3, the figure is 4.2 nM; as for B4, 7.3 nM. In the case of B5, binding was characterised by a dissociation constant (Kd) of 12 nM. Compared with the last molecule, the Kd is about 1.6-fold higher.

With B6, the Kd was 300 nM.

B7: the Kd amounted to 11 nM. B8 came in with a Kd of 0.5 nM.

The target of the next assay is T3, engineered OX2R carrying an additional amino-terminal Avi-tag, biotinylated (Homo sapiens, UniProt O43614, residues V261–A291 deleted, biotin on the Avi-tag (BirA biotin-protein ligase)).
T3 construct: orexin receptor type 2, human; as m1: truncated after residue R389, part of ICL3 (V261–A291) deleted; source: Expi293 cells, transiently transfected, purified in the presence of 50 µM small-molecule agonist, biotinylated with BirA; not shown: Avi-tag, N-terminal, kept
Nature of the assay: grating-coupled interferometry; WAVE system (Creoptix); agonist-bound OX2R immobilised via the biotinylated Avi-tag on a neutravidin-coated WAVEchip 4PCP. Conditions: both partners purified.
B9 gave a dissociation constant (Kd) of around 0.6 nM.

Another assay addresses T3, engineered OX2R carrying an additional ….
Test: not given
Conditions: not given
With B10, the binding result was “binds”. On the same count and under the same terms, as for B11, the entry is “binds”; as for B12, “binds”. As for B13, the binding result was “binds”. Same read-out and setting: in the case of B14 it was “binds”. On the same count and under the same terms, as for B15, the entry is “binds”. On the same count and under the same terms, in the case of B16 it was “binds”; in that of B17, “binds”. As to B18, the binding result is “binds”. Turning to B19, the binding result is “binds”. Same read-out and setting: in the case of B20 it was “binds”. In the case of B21, the binding result was “binds”. As for B22, the binding result is listed as “binds”.

As to B23, the binding result is “binds”. On to B24, for which the binding result is reported as “binds”. For the molecule B25, the binding result is reported as “binds”.
